53 molecules from patent publication US20220298260A1 (MYTHIC THERAPEUTICS, published 2022) can be followed below.

To fix the notation:
B1: MYT1589 (antibody, V domains shown)
VH: QVQLVQSGAEVVKPGASVKISCKASGYTFTGYFMNWVKQSPGQSLEWIGRIHPYDGDTFYNQKFQGKATLTVDKSSNTAHMELLSLTSEDFAVYYCTRYDGSRAMDYWGQGTTVTVSS
VL: DIVLTQSPLSLAVSLGQPAIISCKASQSVSFAGTSLMHWYHQKPGQQPRLLIYRASNLEAGVPDRFSGSGSKTDFTLTISPVEAEDAATYYCQQSREYPYHFGGGTKLEIK
notes: IgG
B2: MYT2225 (antibody, V domains shown)
VH: EVQLVESGGGLVQPGGSLRLSCAASHFNIRTQSIHWVRQAPGKGLEWIGDIFPIDGITDYADSVKGRFTISADTSKNTAYLQMNSLRAEDTAVYYCARGSWSWPSGMDYYLDYWGQGTLVTVSS
VL: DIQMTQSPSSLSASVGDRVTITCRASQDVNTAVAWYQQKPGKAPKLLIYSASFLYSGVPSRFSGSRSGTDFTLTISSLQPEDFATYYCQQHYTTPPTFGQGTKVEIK
notes: IgG
B3: MYT2239 (antibody, V domains shown)
VH: B2 VH with H26G, I54H
VL: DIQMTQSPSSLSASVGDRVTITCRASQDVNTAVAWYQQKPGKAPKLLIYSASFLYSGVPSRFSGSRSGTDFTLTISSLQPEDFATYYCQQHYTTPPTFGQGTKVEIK
notes: IgG
B4: MYT2250 (antibody, V domains shown)
VH: B2 VH with H26G, K65H
VL: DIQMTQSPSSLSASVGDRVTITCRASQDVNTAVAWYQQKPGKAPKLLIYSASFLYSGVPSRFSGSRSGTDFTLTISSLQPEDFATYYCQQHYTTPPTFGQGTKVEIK
notes: IgG
B5: MYT2240 (antibody, V domains shown)
VH: B2 VH with H26G, D55H
VL: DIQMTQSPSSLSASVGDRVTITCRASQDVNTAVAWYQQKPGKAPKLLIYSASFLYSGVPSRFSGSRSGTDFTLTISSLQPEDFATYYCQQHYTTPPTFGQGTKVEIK
notes: IgG
B6: MYT2245 (antibody, V domains shown)
VH: B2 VH with H26G, Y60H
VL: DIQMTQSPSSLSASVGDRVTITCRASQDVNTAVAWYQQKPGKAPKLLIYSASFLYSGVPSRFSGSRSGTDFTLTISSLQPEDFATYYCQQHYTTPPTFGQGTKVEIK
notes: IgG
B7: MYT2229 (antibody, V domains shown)
VH: B2 VH with H26G, R30H
VL: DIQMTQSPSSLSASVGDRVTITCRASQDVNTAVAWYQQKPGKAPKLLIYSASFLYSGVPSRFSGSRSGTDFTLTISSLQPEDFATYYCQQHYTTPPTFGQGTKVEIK
notes: IgG
B8: MYT2267 (antibody, V domains shown)
VH: B2 VH with H26G, D112H
VL: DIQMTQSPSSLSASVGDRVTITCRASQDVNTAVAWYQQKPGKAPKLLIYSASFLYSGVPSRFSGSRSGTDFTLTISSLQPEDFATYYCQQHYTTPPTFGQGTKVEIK
notes: IgG
B9: MYT4506 (antibody, V domains shown)
VH: B2 VH with H26G
VL: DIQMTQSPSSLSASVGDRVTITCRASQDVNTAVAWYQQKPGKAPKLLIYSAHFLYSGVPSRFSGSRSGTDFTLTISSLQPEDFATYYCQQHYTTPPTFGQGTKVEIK
notes: IgG
B10: MYT2249 (antibody, V domains shown)
VH: B2 VH with H26G, V64H
VL: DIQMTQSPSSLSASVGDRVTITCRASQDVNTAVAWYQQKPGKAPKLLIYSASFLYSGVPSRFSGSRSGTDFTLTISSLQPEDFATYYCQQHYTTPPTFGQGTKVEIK
notes: IgG
B11: MYT4504 (antibody, V domains shown)
VH: B2 VH with H26G
VL: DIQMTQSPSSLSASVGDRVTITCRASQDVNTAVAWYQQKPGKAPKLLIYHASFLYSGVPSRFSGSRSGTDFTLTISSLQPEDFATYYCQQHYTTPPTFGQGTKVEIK
notes: IgG
B12: MYT2226 (antibody, V domains shown)
VH: B2 VH with H26G, F27H
VL: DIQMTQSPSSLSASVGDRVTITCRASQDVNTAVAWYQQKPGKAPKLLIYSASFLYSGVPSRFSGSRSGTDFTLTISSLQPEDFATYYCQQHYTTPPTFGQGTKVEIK
notes: IgG
B13: MYT2253 (antibody, V domains shown)
VH: B2 VH with H26G, R98H
VL: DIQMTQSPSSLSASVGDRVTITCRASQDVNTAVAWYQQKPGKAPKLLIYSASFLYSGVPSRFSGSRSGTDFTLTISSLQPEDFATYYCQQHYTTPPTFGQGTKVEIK
notes: IgG
B14: MYT2236 (antibody, V domains shown)
VH: B2 VH with H26G, I51H
VL: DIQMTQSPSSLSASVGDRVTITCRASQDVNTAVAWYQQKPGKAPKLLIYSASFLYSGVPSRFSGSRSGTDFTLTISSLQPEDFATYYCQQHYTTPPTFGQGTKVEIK
notes: IgG
B15: MYT4494 (antibody, V domains shown)
VH: B2 VH with H26G
VL: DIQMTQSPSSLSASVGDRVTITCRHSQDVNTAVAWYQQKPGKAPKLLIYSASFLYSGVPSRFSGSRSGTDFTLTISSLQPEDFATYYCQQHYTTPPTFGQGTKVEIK
notes: IgG
B16: MYT4508 (antibody, V domains shown)
VH: B2 VH with H26G
VL: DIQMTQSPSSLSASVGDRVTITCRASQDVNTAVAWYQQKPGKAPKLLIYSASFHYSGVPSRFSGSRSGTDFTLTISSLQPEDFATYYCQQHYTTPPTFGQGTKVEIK
notes: IgG
B17: MYT2248 (antibody, V domains shown)
VH: B2 VH with H26G, S63H
VL: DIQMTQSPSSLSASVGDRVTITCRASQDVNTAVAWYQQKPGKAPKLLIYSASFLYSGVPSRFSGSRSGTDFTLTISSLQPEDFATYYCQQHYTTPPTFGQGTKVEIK
notes: IgG
B18: MYT4497 (antibody, V domains shown)
VH: B2 VH with H26G
VL: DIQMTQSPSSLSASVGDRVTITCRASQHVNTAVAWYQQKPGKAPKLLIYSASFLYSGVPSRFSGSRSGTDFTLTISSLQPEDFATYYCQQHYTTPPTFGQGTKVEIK
notes: IgG
B19: MYT2234 (antibody, V domains shown)
VH: B2 VH with H26G, H35A
VL: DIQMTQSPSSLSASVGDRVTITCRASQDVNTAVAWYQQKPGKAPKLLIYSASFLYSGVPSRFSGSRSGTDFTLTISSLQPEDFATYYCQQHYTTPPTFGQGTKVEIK
notes: IgG
B20: MYT2265 (antibody, V domains shown)
VH: B2 VH with H26G, Y110H
VL: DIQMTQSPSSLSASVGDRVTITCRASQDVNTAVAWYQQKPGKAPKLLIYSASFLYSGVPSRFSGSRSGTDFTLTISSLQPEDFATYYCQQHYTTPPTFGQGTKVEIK
notes: IgG
B21: MYT2232 (antibody, V domains shown)
VH: B2 VH with H26G, S33H
VL: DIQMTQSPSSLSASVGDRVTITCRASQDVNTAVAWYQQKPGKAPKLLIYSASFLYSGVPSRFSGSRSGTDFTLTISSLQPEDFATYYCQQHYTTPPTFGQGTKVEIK
notes: IgG
B22: MYT2263 (antibody, V domains shown)
VH: B2 VH with H26G, D108H
VL: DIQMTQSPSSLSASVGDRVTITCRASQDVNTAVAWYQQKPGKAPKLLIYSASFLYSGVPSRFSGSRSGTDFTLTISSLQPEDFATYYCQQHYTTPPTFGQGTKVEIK
notes: IgG
B23: MYT2230 (antibody, V domains shown)
VH: B2 VH with H26G, T31H
VL: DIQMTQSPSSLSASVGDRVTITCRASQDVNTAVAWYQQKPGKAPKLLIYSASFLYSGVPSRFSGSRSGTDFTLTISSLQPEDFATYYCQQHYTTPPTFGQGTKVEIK
notes: IgG
B24: MYT2255 (antibody, V domains shown)
VH: B2 VH with H26G, S100H
VL: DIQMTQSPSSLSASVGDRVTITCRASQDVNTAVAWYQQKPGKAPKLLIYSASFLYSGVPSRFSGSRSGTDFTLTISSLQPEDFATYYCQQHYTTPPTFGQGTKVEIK
notes: IgG
B25: MYT2231 (antibody, V domains shown)
VH: B2 VH with H26G, Q32H
VL: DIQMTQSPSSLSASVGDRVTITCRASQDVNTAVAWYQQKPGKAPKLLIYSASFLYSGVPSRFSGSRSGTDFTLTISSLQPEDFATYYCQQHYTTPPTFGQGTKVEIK
notes: IgG
B26: MYT2266 (antibody, V domains shown)
VH: B2 VH with H26G, L111H
VL: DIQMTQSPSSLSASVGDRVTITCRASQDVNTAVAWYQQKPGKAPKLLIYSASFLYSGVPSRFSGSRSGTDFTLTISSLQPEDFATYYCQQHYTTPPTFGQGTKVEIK
notes: IgG
B27: MYT2238 (antibody, V domains shown)
VH: B2 VH with H26G, P53H
VL: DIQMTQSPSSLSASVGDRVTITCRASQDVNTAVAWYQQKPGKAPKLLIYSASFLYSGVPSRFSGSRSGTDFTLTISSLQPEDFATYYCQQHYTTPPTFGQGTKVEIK
notes: IgG
B28: MYT2227 (antibody, V domains shown)
VH: B2 VH with H26G, N28H
VL: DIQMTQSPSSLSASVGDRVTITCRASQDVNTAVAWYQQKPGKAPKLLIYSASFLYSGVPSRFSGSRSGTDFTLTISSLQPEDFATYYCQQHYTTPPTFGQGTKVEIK
notes: IgG
B29: MYT4496 (antibody, V domains shown)
VH: B2 VH with H26G
VL: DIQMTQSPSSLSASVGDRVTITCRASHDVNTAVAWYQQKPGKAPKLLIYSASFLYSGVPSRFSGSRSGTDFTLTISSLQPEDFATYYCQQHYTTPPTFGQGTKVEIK
notes: IgG
B30: MYT2260 (antibody, V domains shown)
VH: B2 VH with H26G, S105H
VL: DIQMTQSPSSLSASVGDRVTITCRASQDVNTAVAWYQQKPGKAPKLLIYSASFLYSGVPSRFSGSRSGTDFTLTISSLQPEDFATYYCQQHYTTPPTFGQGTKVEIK
notes: IgG
B31: MYT2233 (antibody, V domains shown)
VH: B2 VH with H26G, I34H
VL: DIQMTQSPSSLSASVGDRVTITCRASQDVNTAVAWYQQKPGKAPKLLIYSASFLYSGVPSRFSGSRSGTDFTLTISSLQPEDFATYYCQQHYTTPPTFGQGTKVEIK
notes: IgG
B32: MYT2247 (antibody, V domains shown)
VH: B2 VH with H26G, D62H
VL: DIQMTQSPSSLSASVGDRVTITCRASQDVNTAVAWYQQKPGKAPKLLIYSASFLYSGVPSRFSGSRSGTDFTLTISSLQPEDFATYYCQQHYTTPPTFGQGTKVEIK
notes: IgG
B33: MYT2243 (antibody, V domains shown)
VH: B2 VH with H26G, T58H
VL: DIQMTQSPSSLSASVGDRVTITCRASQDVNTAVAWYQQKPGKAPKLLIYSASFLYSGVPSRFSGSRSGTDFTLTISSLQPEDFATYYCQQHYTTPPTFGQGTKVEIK
notes: IgG
B34: MYT2262 (antibody, V domains shown)
VH: B2 VH with H26G, M107H
VL: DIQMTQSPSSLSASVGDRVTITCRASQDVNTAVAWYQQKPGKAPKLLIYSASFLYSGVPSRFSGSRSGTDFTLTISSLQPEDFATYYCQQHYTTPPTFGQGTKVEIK
notes: IgG
B35: MYT4493 (antibody, V domains shown)
VH: B2 VH with H26G
VL: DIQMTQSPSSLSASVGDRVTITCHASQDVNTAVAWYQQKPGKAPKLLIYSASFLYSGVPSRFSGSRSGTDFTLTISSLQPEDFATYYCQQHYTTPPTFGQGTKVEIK
notes: IgG
B36: MYT4499 (antibody, V domains shown)
VH: B2 VH with H26G
VL: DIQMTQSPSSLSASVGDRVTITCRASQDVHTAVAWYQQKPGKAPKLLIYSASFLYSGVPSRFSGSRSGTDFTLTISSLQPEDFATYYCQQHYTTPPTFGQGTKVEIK
notes: IgG
B37: MYT4495 (antibody, V domains shown)
VH: B2 VH with H26G
VL: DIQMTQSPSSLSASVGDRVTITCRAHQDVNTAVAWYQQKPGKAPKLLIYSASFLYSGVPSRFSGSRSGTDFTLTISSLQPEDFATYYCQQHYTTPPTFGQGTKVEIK
notes: IgG
B38: MYT2264 (antibody, V domains shown)
VH: B2 VH with H26G, Y109H
VL: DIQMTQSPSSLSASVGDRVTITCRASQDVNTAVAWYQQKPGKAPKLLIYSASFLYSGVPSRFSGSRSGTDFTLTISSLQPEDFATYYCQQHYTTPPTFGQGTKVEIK
notes: IgG
B39: MYT2268 (antibody, V domains shown)
VH: B2 VH with H26G, Y113H
VL: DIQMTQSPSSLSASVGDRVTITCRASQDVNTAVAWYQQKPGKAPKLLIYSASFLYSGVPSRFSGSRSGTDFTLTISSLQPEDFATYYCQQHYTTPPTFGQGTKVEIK
notes: IgG
B40: MYT2237 (antibody, V domains shown)
VH: B2 VH with H26G, F52H
VL: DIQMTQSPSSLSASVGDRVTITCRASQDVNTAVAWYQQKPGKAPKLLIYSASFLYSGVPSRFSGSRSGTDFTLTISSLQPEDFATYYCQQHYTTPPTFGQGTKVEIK
notes: IgG
B41: MYT2258 (antibody, V domains shown)
VH: B2 VH with H26G, W103H
VL: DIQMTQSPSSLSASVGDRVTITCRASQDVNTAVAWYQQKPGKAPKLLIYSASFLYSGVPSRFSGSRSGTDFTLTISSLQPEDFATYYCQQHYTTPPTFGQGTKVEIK
notes: IgG
B42: MYT2246 (antibody, V domains shown)
VH: B2 VH with H26G, A61H
VL: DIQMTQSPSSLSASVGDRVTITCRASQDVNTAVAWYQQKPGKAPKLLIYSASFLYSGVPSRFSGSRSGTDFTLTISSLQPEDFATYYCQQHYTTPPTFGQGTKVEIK
notes: IgG
B43: MYT2257 (antibody, V domains shown)
VH: B2 VH with H26G, S102H
VL: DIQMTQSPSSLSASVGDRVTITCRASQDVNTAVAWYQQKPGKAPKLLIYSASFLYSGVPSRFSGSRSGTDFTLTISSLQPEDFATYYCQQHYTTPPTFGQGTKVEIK
notes: IgG
B44: MYT2241 (antibody, V domains shown)
VH: B2 VH with H26G, G56H
VL: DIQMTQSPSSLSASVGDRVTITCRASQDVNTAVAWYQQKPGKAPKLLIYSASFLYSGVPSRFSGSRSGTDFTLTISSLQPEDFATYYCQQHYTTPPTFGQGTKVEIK
notes: IgG
B45: MYT2242 (antibody, V domains shown)
VH: B2 VH with H26G, I57H
VL: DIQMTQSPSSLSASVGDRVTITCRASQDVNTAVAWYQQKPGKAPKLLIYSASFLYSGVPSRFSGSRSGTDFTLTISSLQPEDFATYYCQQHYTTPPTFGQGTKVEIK
notes: IgG
B46: MYT4498 (antibody, V domains shown)
VH: B2 VH with H26G
VL: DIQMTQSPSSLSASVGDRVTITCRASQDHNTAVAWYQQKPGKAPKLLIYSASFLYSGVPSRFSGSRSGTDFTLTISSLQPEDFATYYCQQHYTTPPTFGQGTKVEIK
notes: IgG
B47: MYT2228 (antibody, V domains shown)
VH: B2 VH with H26G, I29H
VL: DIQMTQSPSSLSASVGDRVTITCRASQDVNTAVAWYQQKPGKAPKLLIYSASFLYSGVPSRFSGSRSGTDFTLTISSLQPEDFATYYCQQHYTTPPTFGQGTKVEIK
notes: IgG
B48: MYT2256 (antibody, V domains shown)
VH: B2 VH with H26G, W101H
VL: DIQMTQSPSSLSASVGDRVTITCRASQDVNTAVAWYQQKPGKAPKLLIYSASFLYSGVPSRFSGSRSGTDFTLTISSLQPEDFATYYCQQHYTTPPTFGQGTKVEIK
notes: IgG
B49: MYT4507 (antibody, V domains shown)
VH: B2 VH with H26G
VL: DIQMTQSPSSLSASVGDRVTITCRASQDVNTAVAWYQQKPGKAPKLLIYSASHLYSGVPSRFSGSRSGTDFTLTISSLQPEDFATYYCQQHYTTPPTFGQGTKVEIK
notes: IgG
B50: MYT2251 (antibody, V domains shown)
VH: B2 VH with H26G, G66H
VL: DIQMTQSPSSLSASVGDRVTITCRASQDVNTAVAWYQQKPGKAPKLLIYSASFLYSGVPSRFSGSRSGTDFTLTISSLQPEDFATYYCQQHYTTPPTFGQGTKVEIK
notes: IgG
B51: MYT2235 (antibody, V domains shown)
VH: B2 VH with H26G, D50H
VL: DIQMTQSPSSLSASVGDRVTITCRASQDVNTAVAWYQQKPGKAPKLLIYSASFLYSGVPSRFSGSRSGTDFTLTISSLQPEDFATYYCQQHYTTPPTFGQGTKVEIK
notes: IgG
B52: MYT4500 (antibody, V domains shown)
VH: B2 VH with H26G
VL: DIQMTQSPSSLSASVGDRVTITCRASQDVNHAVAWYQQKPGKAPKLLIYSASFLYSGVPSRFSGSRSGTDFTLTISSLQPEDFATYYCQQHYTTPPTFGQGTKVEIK
notes: IgG
B53: MYT4502 (antibody, V domains shown)
VH: B2 VH with H26G
VL: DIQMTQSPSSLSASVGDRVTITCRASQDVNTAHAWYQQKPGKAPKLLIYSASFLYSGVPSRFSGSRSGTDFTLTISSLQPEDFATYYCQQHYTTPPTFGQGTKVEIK
notes: IgG

Substitutions are numbered along the chain they refer to.

In this experiment the target is T1, FOLR1 (R&D Systems, Cat #5646-FR) (human, UniProt P15328 25-233).
T1 construct: Bought soluble protein; also called Folate Receptor 1
T1 sequence (P15328 25-233 limits assumed): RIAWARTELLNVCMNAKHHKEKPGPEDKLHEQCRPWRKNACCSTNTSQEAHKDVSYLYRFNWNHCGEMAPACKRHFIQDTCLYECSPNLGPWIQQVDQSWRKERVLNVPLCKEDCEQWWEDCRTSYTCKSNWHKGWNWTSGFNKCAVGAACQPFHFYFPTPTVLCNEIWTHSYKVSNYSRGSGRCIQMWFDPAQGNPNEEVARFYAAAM
Nature of the experiment: BLI, IgG on anti-human Fc sensor, 50 nM FOLR1. (In general: In BLI a coated tip is dipped into the sample, and binding shifts an interference pattern.)
As to B1, the binding result was “binds”.

For the molecule B2, the binding result is recorded as “binds”.

For the molecule B3, the binding result is “binds”.

For the molecule B4, the binding result was “binds”.

As to B5, the binding result is recorded as “binds”.

For B6, the binding result is reported as “binds”.

B7: the binding result is recorded as “binds”.

On to B8, for which the binding result is given as “binds”.

With B9, the binding result is “binds”.

With B10, the binding result is recorded as “binds”.

As for B11, the binding result was “binds”.

Regarding B12, the binding result was “binds”.

As to B13, the binding result was “binds”.

Turning to B14, the binding result was “binds”.

Consider B15, for which the binding result is reported as “binds”.

B16: the binding result is given as “binds”.

In the case of B17, the binding result is on record as “binds”.

Turning to B18, the binding result is “binds”.

Regarding B19, the binding result is on record as “binds”.

Consider B20, for which the binding result is given as “binds”.

As to B21, the binding result is on record as “binds”.

B22: the binding result is “binds”.

Turning to B23, the binding result is recorded as “binds”.

Consider B24, for which the binding result is “binds”.

For B25, the binding result is on record as “binds”.

B26: the binding result was “binds”.

B27: the binding result is “binds”.

On to B28, for which the binding result is reported as “binds”.

B29: the binding result was “binds”.

For the molecule B30, the binding result is given as “binds”.

As for B31, the binding result is on record as “binds”.

With B32, the binding result is “binds”.

With B33, the binding result was “binds”.

Turning to B34, the binding result is on record as “binds”.

B35: the binding result is on record as “binds”.

In the case of B36, the binding result is given as “binds”.

Turning to B37, the binding result is reported as “binds”.

Consider B38, for which the binding result is given as “binds”.

Take B39: the binding result is “binds”.

Consider B40, for which the binding result is given as “binds”.

As to B41, the binding result is “binds”.

Take B42: the binding result is “binds”.

Turning to B43, the binding result is on record as “binds”.

B44: the binding result is recorded as “binds”.

Consider B45, for which the binding result is “binds”.

Consider B46, for which the binding result is recorded as “binds”.

In the case of B47, the binding result was “binds”.

Turning to B48, the binding result is “binds”.

Turning to B49, the binding result was “binds”.

In the case of B50, the binding result is reported as “binds”.

In the case of B51, the binding result is reported as “binds”.

Turning to B52, the binding result is given as “binds”.

As for B53, the binding result was “binds”.
